Laboratory results: paper PMC7954794, “Protein context shapes the specificity of SH3 domain-mediated interactions in vivo” (Nature Communications, 2021)

B1: YGR281W_2 (protein, UniProt P53049 1-1477, looked up)
Oligomycin resistance …: MTITVGDAVSETELENKSQNVVLSPKASASSDISTDVDKDTSSSWDDKSLLPTGEYIVDRNKPQTYLNSDDIEKVTESDIFPQKRLFSFLHSKKIPEVPQTDDERKIYPLFHTNIISNMFFWWVLPILRVGYKRTIQPNDLFKMDPRMSIETLYDDFEKNMIYYFEKTRKKYRKRHPEATEEEVMENAKLPKHTVLRALLFTFKKQYFMSIVFAILANCTSGFNPMITKRLIEFVEEKAIFHSMHVNKGIGYAIGACLMMFVNGLTFNHFFHTSQLTGVQAKSILTKAAMKKMFNASNYARHCFPNGKVTSFVTTDLARIEFALSFQPFLAGFPAILAICIVLLIVNLGPIALVGIGIFFGGFFISLFAFKLILGFRIAANIFTDARVTMMREVLNNIKMIKYYTWEDAYEKNIQDIRTKEISKVRKMQLSRNFLIAMAMSLPSIASLVTFLAMYKVNKGGRQPGNIFASLSLFQVLSLQMFFLPIAIGTGIDMIIGLGRLQSLLEAPEDDPNQMIEMKPSPGFDPKLALKMTHCSFEWEDYELNDAIEEAKGEAKDEGKKNKKKRKDTWGKPSASTNKAKRLDNMLKDRDGPEDLEKTSFRGFKDLNFDIKKGEFIMITGPIGTGKSSLLNAMAGSMRKTDGKVEVNGDLLMCGYPWIQNASVRDNIIFGSPFNKEKYDEVVRVCSLKADLDILPAGDMTEIGERGITLSGGQKARINLARSVYKKKDIYLFDDVLSAVDSRVGKHIMDECLTGMLANKTRILATHQLSLIERASRVIVLGTDGQVDIGTVDELKARNQTLINLLQFSSQNSEKEDEEQEAVVAGELGQLKYESEVKELTELKKKATEMSQTANSGKIVADGHTSSKEERAVNSISLKIYREYIKAAVGKWGFIALPLYAILVVGTTFCSLFSSVWLSYWTENKFKNRPPSFYMGLYSFFVFAAFIFMNGQFTILCAMGIMASKWLNLRAVKRILHTPMSYIDTTPLGRILNRFTKDTDSLDNELTESLRLMTSQFANIVGVCVMCIVYLPWFAIAIPFLLVIFVLIADHYQSSGREIKRLEAVQRSFVYNNLNEVLGGMDTIKAYRSQERFLAKSDFLINKMNEAGYLVVVLQRWVGIFLDMVAIAFALIITLLCVTRAFPISAASVGVLLTYVLQLPGLLNTILRAMTQTENDMNSAERLVTYATELPLEASYRKPEMTPPESWPSMGEIIFENVDFAYRPGLPIVLKNLNLNIKSGEKIGICGRTGAGKSTIMSALYRLNELTAGKILIDNVDISQLGLFDLRRKLAIIPQDPVLFRGTIRKNLDPFNERTDDELWDALVRGGAIAKDDLPEVKLQKPDENGTHGKMHKFHLDQAVEEEGSNFSLGERQLLALTRALVRQSKILILDEATSSVDYETDGKIQTRIVEEFGDCTILCIAHRLKTIVNYDRILVLEKGEVAEFDTPWTLFSQEDSIFRSMCSRSGIVENDFENRS
B2: YAR042W_2 (protein, UniProt P35845 1-1188, looked up)
Oxysterol-binding protein …: MEQPDLSSVAISKPLLKLKLLDALRQGSFPNLQDLLKKQFQPLDDPNVQQVLHLMLHYAVQVAPMAVIKEIVHHWVSTTNTTFLNIHLDLNERDSNGNTPLHIAAYQSRGDIVAFLLDQPTINDCVLNNSHLQAIEMCKNLNIAQMMQVKRSTYVAETAQEFRTAFNNRDFGHLESILSSPRNAELLDINGMDPETGDTVLHEFVKKRDVIMCRWLLEHGADPFKRDRKGKLPIELVRKVNENDTATNTKIAIDIELKKLLERATREQSVIDVTNNNLHEAPTYKGYLKKWTNFAQGYKLRWFILSSDGKLSYYIDQADTKNACRGSLNMSSCSLHLDSSEKLKFEIIGGNNGVIRWHLKGNHPIETNRWVWAIQGAIRYAKDREILLHNGPYSPSLALSHGLSSKVSNKENLHATSKRLTKSPHLSKSTLTQNDHDNDDDSTNNNNNKSNNDYDDNNNNNNNDDDDYDDDDESRPLIEPLPLISSRSQSLSEITPGPHSRKSTVSSTRAADIPSDDEGYSEDDSDDDGNSSYTMENGGENDGDEDLNAIYGPYIQKLHMLQRSISIELASLNELLQDKQQHDEYWNTVNTSIETVSEFFDKLNRLTSQREKRMIAQMTKQRDVNNVWIQSVKDLEMELVDKDEKLVALDKERKNLKKMLQKKLNNQPQVETEANEESDDANSMIKGSQESTNTLEEIVKFIEATKESDEDSDADEFFDAEEAASDKKANDSEDLTTNKETPANAKPQEEAPEDESLIVISSPQVEKKNQLLKEGSFVGYEDPVRTKLALDEDNRPKIGLWSVLKSMVGQDLTKLTLPVSFNEPTSLLQRVSEDIEYSHILDQAATFEDSSLRMLYVAAFTASMYASTTNRVSKPFNPLLGETFEYARTDGQYRFFTEQVSHHPPISATWTESPKWDFYGECNVDSSFNGRTFAVQHLGLWYITIRPDHNISVPEETYSWKKPNNTVIGILMGKPQVDNSGDVKVTNHTTGDYCMLHYKAHGWTSAGAYEVRGEVFNKDDKKLWVLGGHWNDSIYGKKVTARGGELTLDRIKTANSATGGPKLDGSKFLIWKANERPSVPFNLTSFALTLNALPPHLIPYLAPTDSRLRPDQRAMENGEYDKAAAEKHRVEVKQRAAKKEREQKGEEYRPKWFVQEEHPVTKSLYWKFNGEYWNKRKNHDFKDCADIF
B3: YKL051W_2 (protein, UniProt P35735 1-353, looked up)
Protein SFK1: MIQFKSPGNWLFIVPWIAFIPWYGMLIAMLICWASQGHPIYWFMHSEQFPVYISDIGATNLRPLFISCAGWQGLGYVITVALEFFQRSGYLPFQLKKKDPSISDSTSYAEKLHSGKYLMPPYYTKDERNLIFAAFVLGSIGELALLFSSIFSTALYHRVHIAMVSVFVVFMFLSTCCLIAEYFLMGRHYASVHPLASPHFNPQSSEKSFNQDYNTVDELPWYKWKGHVWNKFTISATLKVIWLTLAVVWAICFGAINDRSKSACFEWLLAFWFGIIFMILSADFYLGGRYRQSRYFNHVESFSGYYKYDKALGLYHSEDVLPSDDNAGVIATETASSNIYNNSSSNESIQVVV
B4: YKR048C_2 (protein, UniProt P25293 1-417, looked up)
Nucleosome assembly protein: MSDPIRTKPKSSMQIDNAPTPHNTPASVLNPSYLKNGNPVRAQAQEQDDKIGTINEEDILANQPLLLQSIQDRLGSLVGQDSGYVGGLPKNVKEKLLSLKTLQSELFEVEKEFQVEMFELENKFLQKYKPIWEQRSRIISGQEQPKPEQIAKGQEIVESLNETELLVDEEEKAQNDSEEEQVKGIPSFWLTALENLPIVCDTITDRDAEVLEYLQDIGLEYLTDGRPGFKLLFRFDSSANPFFTNDILCKTYFYQKELGYSGDFIYDHAEGCEISWKDNAHNVTVDLEMRKQRNKTTKQVRTIEKITPIESFFNFFDPPKIQNEDQDEELEEDLEERLALDYSIGEQLKDKLIPRAVDWFTGAALEFEFEEDEEEADEDEDEEEDDDHGLEDDDGESAEEQDDFAGRPEQAPECKQS
B5: YBL039C_2 (protein, UniProt P28274 1-579, looked up)
CTP synthase 1: MKYVVVSGGVISGIGKGVLASSTGMLMKTLGLKVTSIKIDPYMNIDAGTMSPLEHGECFVLDDGGETDLDLGNYERYLGVTLTKDHNITTGKIYSHVIAKERKGDYLGKTVQIVPHLTNAIQDWIERVAKIPVDDTGMEPDVCIIELGGTVGDIESAPFVEALRQFQFKVGKENFALIHVSLVPVIHGEQKTKPTQAAIKGLRSLGLVPDMIACRCSETLDKPTIDKIAMFCHVGPEQVVNVHDVNSTYHVPLLLLEQKMIDYLHARLKLDEISLTEEEKQRGLELLSKWKATTGNFDESMETVKIALVGKYTNLKDSYLSVIKALEHSSMKCRRKLDIKWVEATDLEPEAQESNKTKFHEAWNMVSTADGILIPGGFGVRGTEGMVLAARWARENHIPFLGVCLGLQIATIEFTRSVLGRKDSHSAEFYPDIDEKNHVVVFMPEIDKETMGGSMRLGLRPTFFQNETEWSQIKKLYGDVSEVHERHRHRYEINPKMVDELENNGLIFVGKDDTGKRCEILELKNHPYYIATQYHPEYTSKVLDPSKPFLGLVAASAGILQDVIEGKYDLEAGENKFNF
B6: YCR002C_2 (protein, UniProt P25342 1-322, looked up)
Cell division control protein …: MDPLSSVQPASYVGFDTITNQIEHRLLKKGFQFNIMVVGQSGLGKSTLINTLFASHLIDSATGDDISALPVTKTTEMKISTHTLVEDRVRLNINVIDTPGFGDFIDNSKAWEPIVKYIKEQHSQYLRKELTAQRERFITDTRVHAILYFLQPNGKELSRLDVEALKRLTEIANVIPVIGKSDTLTLDERTEFRELIQNEFEKYNFKIYPYDSEELTDEELELNRSVRSIIPFAVVGSENEIEINGETFRGRKTRWSAINVEDINQCDFVYLREFLIRTHLQDLIETTSYIHYEGFRARQLIALKENANSRSSAHMSSNAIQR
B7: YCR030C_2 (protein, UniProt P25623 1-870, looked up)
Suppressor of yeast profilin …: MTEQRTKYADSILTTKSPYEATETIRIRLSQVKLLNKDFYLLFKELANLKRNYAQQLRKIIAENEDITKILNAQMIESNVLTPQEMSAFRFNSLGELRNVWDTVIEELKSDLKSSTEYYNTLDQQVVRELKESVENNTSWRESKDLHSKLSKNAASIEHYSKNNENSSHLEEARRQWDQQSPYLFELFETIDYNRLDTLKNCMLRFQTSFSDYLLNTTKECETVMTKFLAFEPQSEIDRFAKDASQYNFQLSSSSKEVVPNNASPASATGARPVSVSNGAANTEREKKSPQKDKRKSAFGNIGHRLASASSSLTHNDLMNNEFSDSTNNSSLKSKKSSHTLRSKVGSIFGRNKTKNKRQQQSSSNSHIQASITETPNNSSTRVSSTATSSIYQKQRRPTYSSSKSNNWTPGEASDTPPLPPHATPKNVDAPVTADTPPAQTFTPSEVPPSTPQQSSPPTAKEPDSSNLPKTVPISISQPPLQPQSKTKPLPVEPASPSISLPTATVDNQPSGQVDSRPLHIRAPALPPSRKQNFIHNRDSQLYDSLPNHGSGATPTSSSLSSIPQERPVSTLSSQITGELRELNPQATGSSTSLVGQSLFQHSSLDTSQFGLNASIAEVLNASFKDGMLQNSQLIGEIALNYLPNSVMNSPLPIGINLRINNGAKFEKVILNQAFIERVAPEEFKVNPSFIDSRTLGAIKYSIKEPIAPIVIHPVWRFESHQASVVLTVKMSPSLPDEISQIVIEDLVVFVNIDGANATSALSKPQGSFSKEKKRITWRFKEPVVLTRNGEGQRLIARFITDGLAHESAKGVITKFTISETDNVALPHSGAGSGITLTCQELDENNPFGGEWLDVNTKRTLTTGNYHGLA

System: PPIs identified as affected by the SH3 domain deletions
Assay: Liquid DHFR-PCA low-throughput validation of PPIs affected by SH3 deletion (Fig. S1D-E)
Type: cell-based, Saccharomyces cerevisiae
Conditions: label = prey, liquid DHFR-PCA, prey _1 = lost, _2 = gained in screen
Procedure, shortened: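 Yeast diploids from DHFR-PCA mating grown 48 h in synthetic complete MSG medium pH 6.0 with NAT and HPH, normalized to 1 OD and diluted to 0.1 OD in liquid PCA selection medium. Growth followed by OD every 15 min for 72 h at 30 °C.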

Row | Molecule | Ratio (Deletedscore / WTscore) (bait BZZ1-2) | Ratio (Deletedscore / WTscore) (bait LSB3) | other results
1 | B1 | 1.357 | 1.455 | Ratio (Deletedscore / WTscore) (bait BOI1): 0.9762
2 | B2 | – | – | Ratio (Deletedscore / WTscore) (bait ABP1): 1.203
3 | B3 | 1.125 | 1.525 | Ratio (Deletedscore / WTscore) (bait BOI1): 0.8707
4 | B4 | – | 1.174 | Ratio (Deletedscore / WTscore) (bait BOI2): 1.065
5 | B5 | 1.633 | 1.147 | Ratio (Deletedscore / WTscore) (bait HSE1): 1.248
6 | B6 | 1.169 | 1.096 | Ratio (Deletedscore / WTscore) (bait HOF1): 0.2463
7 | B7 | 1.115 | – | –
